Data as given in article PMC6572788 (2019).

Tests used:
[1] = target: T1, 2PT-NBD1 (human CFTR NBD1, residues 387–646, S492P/A534P/I539T) (human, UniProt P13569 387-646, S492P | A534P | I539T, biotin (in the ELISA; site not stated)); experiment: ELISA; printed as pEC50 5.8
[2] = target: T1, 2PT-NBD1 (human CFTR NBD1, residues …); experiment: ELISA; printed as pEC50 7.6
[3] = target: T1, 2PT-NBD1 (human CFTR NBD1, residues …); experiment: ELISA; printed as pEC50 8.4
[4] = target: T1, 2PT-NBD1 (human CFTR NBD1, residues …); experiment: ELISA; printed as pEC50 7.9
[5] = target: T1, 2PT-NBD1 (human CFTR NBD1, residues …); experiment: ELISA; printed as pEC50 8.7

T1 sequence (P13569 387-646 S492P/A534P/I539T): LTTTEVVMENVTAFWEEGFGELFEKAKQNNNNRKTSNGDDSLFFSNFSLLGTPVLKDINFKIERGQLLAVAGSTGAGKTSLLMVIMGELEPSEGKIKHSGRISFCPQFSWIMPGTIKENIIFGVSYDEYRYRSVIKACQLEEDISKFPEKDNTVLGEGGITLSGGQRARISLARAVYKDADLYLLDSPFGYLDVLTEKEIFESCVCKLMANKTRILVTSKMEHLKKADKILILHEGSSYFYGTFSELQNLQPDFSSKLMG

B1: nanobody G3a (VHH)
VHH: QVQLQESGGGLVQAGGSLRLSCTASGRAFSWYVMGWFRQAPGKEREFVATVSGNGSRRDYADSVKGRFTISRDNAKNTVYLQMNSLKPEDTAVYYCAASSTYYYTDPEKYDYWGQGTQVTVSS
[1]
  EC50: 1580 nM

B2: nanobody D12 (VHH)
VHH: QVQLQESGGGLVQAGSSLRLACAATGSIRSINNMGWYRQAPGKQRGMVAIITRVGNTDYADSVKGRFTISRDNAKNTVYLQMNSLKPEDTATYYCHAEITEQSRPFYLTDDYWGQGTQVTVSS
[2]
  EC50: 25.1 nM

B3: nanobody T4 (VHH)
VHH: QVQLQESGGGLVQAGGSLRLSCAASGSTFAIIAMGWYRQAPGKQRELVAVISTGDTRYADSVKGRFTISRDNAKNTVYLQMDSLRPEDTAVYYCNAAVQVRDYRNYWGQGTQVTVSS
[3]
  EC50: 3.98 nM

B4: nanobody T2a (VHH)
VHH: QVQLQESGGGLVQAGGSLRLSCAASGSIFRIDAMGWYRQAPGKQRELVAHSTSGGSTDYADSVKGRFTISRDNAKNTVYLQMNSLKPEDTAVYYCNADVRTRWYASNNYWGQGTQVTVSS
[4]
  EC50: 12.6 nM

B5: nanobody T8 (VHH)
VHH: QVQLQESGGGLVQPGGSLRLSCAASGSTSSINAMGWYRQAPGKQREPVAISSSGGDTRYAEPVKGRFTISRDNAQNKVYLQMNSLKPEDTAVYYCWLNWGRTSVNSWGQGTQVTVSS
[4]
  EC50: 12.6 nM

B6: nanobody T27 (VHH)
VHH: QVQLQESGGGLEQPGGSLRLSCATSGVIFGINAMGWYRQAPGKQRELVATFTSGGSTNYADFVEGRFTISRDNAKNTVYLQMNGLRPEDTAVYYCHATVVVSRYGLTYDYWGQGTQVTVSS
[5]
  EC50: 2 nM
